Literature values, collected in article PMC3082522.

Molecular target: filamentous actin (Oryctolagus cuniculus) (UniProt P68135)

Kd: 220 nM
Substance: espin (from UniProt Q63618)
